Results published in patent US20240132578A1.

Key:
Assay in all cases: cell-based or functional assay
[1] = target: HIV-1 Env of isolate MGRM-A-008 (clade A pseudovirus) (HIV-1)
[2] = target: HIV-1 Env of isolate SC422661.8 (Acute), clade B (HIV-1)
[3] = target: HIV-1 Env of isolate 92UG005 (clade D pseudovirus) (HIV-1)
[4] = target: HIV-1 Env of pseudovirus MGRM-F1-017 (clade F) (HIV-1)
[5] = target: HIV-1 Env of isolate MGRM-Chronic-B-001, clade B (HIV-1)
[6] = target: HIV-1 MGRM-AG-013 Env (pseudovirus) (HIV-1)
[7] = target: HIV-1 Env of isolate 94KE105 (listed under clade A; pseudovirus) (HIV-1)
[8] = target: HIV-1 Env of isolate MGRM-D-024 (clade D pseudovirus) (HIV-1)
[9] = target: HIV-1 envelope glycoprotein (Env) of isolate MGRM-C-005 (HIV-1)
[10] = target: HIV-1 Env of isolate MGRM-D-012 (clade D pseudovirus) (HIV-1)
[11] = target: HIV-1 envelope glycoprotein (Env) of isolate MGRM-C-002 (HIV-1)
[12] = target: HIV-1 envelope glycoprotein (Env) of isolate MGRM-C-015 (HIV-1)
[13] = target: HIV-1 Env of isolate APV_13, clade B (HIV-1)
[14] = target: HIV-1 envelope glycoprotein (Env) of isolate MGRM-C-004 (HIV-1)
[15] = target: HIV-1 envelope glycoprotein (Env) of isolate MG RM-AG-011 (HIV-1)
[16] = target: HIV-1 Env of pseudovirus MGRM-F1-017 (HIV-1)
[17] = target: HIV-1 Env of pseudovirus MGRM-F1-014 (HIV-1)
[18] = target: HIV-1 envelope glycoprotein (Env) of isolate MGRM-AE-008 (HIV-1)
[19] = target: HIV-1 Env of pseudovirus MGRM-F1-004 (HIV-1)
[20] = target: HIV-1 Env of pseudovirus MGRM-D-026 (HIV-1)
[21] = target: HIV-1 Env of isolate MGRM-D-001 (HIV-1)
[22] = target: HIV-1 Env of isolate MGRM-C-026 (subtype C), on pseudovirus (HIV-1)
[23] = target: HIV-1 Env of isolate MGRM-C-028 (subtype C), on pseudovirus (HIV-1)
[24] = target: HIV-1 Env of pseudovirus isolate 6535.3 (clade B) (HIV-1)

PGT-144 (4970_K22) (antibody), sequence (VH): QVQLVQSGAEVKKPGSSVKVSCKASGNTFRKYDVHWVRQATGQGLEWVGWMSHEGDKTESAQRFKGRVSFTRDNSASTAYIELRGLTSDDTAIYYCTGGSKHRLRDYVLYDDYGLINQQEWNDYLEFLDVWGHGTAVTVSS
PGT-144 (4970_K22) (antibody), sequence (VL): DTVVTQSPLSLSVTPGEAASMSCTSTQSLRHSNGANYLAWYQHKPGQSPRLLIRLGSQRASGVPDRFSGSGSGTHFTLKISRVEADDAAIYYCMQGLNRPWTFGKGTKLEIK
PGT-145 (4995_P16) (antibody), sequence (VH): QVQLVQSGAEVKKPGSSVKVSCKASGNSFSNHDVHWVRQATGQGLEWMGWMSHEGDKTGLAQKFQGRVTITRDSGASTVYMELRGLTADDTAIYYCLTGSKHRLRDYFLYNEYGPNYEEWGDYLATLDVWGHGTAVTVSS
PGT-145 (4995_P16) (antibody), sequence (VL): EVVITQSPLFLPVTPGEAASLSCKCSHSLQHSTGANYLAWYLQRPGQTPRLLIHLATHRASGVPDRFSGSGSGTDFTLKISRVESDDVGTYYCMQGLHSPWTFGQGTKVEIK
PGT-142 (4995_E20) (antibody), sequence (VH): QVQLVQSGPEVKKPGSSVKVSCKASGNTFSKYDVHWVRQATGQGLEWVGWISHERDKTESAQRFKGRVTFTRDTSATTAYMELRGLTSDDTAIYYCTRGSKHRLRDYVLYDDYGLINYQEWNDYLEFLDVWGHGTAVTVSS
PGT-142 (4995_E20) (antibody), sequence (VL): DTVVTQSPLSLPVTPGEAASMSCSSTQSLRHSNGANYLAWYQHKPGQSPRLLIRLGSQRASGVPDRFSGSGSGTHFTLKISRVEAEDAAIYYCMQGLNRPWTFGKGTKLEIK
PGT-141 (4964_G22; 4993_K13) (antibody), sequence (VH): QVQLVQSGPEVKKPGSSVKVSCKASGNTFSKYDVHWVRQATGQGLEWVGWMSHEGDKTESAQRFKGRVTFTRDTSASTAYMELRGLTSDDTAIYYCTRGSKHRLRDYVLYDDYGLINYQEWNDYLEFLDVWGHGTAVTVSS
PGT-143 (4980_N08) (antibody), sequence (VH): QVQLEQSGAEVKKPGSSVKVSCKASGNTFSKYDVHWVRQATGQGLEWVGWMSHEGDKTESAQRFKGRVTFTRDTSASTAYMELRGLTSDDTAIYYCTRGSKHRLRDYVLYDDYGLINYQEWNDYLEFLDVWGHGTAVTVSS
PGT-143 (4980_N08) (antibody), sequence (VL): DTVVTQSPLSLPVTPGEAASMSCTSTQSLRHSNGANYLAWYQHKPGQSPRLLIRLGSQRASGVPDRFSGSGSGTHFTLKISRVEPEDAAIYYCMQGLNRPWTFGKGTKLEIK
1443_C16 (PG16) (TCN-116) (antibody), sequence (VH): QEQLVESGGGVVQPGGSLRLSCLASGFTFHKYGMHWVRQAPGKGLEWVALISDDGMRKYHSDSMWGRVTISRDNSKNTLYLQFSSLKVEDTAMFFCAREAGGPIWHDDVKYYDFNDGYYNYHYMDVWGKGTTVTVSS
1443_C16 (PG16) (TCN-116) (antibody), sequence (VL): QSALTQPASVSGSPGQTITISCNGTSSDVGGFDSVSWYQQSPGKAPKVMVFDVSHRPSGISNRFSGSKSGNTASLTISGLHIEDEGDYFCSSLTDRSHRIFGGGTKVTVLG

| Substance | IC50 (µg/ml), pseudovirus neutralization [1] | IC50 (µg/ml), pseudovirus neutralization [2] | IC50, pseudovirus neutralization [3] | IC50 [4] | IC50 (µg/ml), pseudovirus neutralization [5] | IC50 (µg/ml), pseudovirus neutralization [6] | IC50 (µg/ml), pseudovirus neutralization [7] | IC50, pseudovirus neutralization [8] | IC50 (µg/ml), pseudovirus neutralization [9] | IC50, pseudovirus neutralization [10] | IC50 (µg/ml), pseudovirus neutralization [11] | IC50 (µg/ml), pseudovirus neutralization [12] | IC50 (µg/ml), pseudovirus neutralization [13] | IC50 (µg/ml), pseudovirus neutralization [14] | IC50 [15] | IC50, pseudovirus neutralization [16] | IC50, pseudovirus neutralization [17] | IC50 [18] | IC50, pseudovirus neutralization [19] | IC50, pseudovirus neutralization [20] | other results |
| --- | --- | --- | --- | --- | --- | --- | --- | --- | --- | --- | --- | --- | --- | --- | --- | --- | --- | --- | --- | --- | --- |
| 2F5 (antibody) | > 50 µg/mL | > 50 µg/mL | 8.61 µg/mL | > 50 µg/mL | 0.55 µg/mL | 1.79 µg/mL | > 50 µg/mL | > 50 µg/mL | > 50 µg/mL | 1.7 µg/mL | 44.7 µg/mL | > 50 µg/mL | 3.81 µg/mL | > 50 µg/mL | – | – | – | – | – | – | – |
| 2G12 (antibody) | > 50 µg/mL | 0.84 µg/mL | > 50 µg/mL | > 50 µg/mL | 0.08 µg/mL | 0.95 µg/mL | 7.22 µg/mL | > 50 µg/mL | > 50 µg/mL | > 50 µg/mL | > 50 µg/mL | 1.75 µg/mL | 9.24 µg/mL | > 50 µg/mL | – | – | – | – | – | – | – |
| 4E10 (antibody) | 7.59 µg/mL | 6.35 µg/mL | 7.46 µg/mL | 4.92 µg/mL | 1.46 µg/mL | 2.61 µg/mL | 7.63 µg/mL | 3.6 µg/mL | 16.4 µg/mL | 1.13 µg/mL | 18.2 µg/mL | 2.52 µg/mL | 7.33 µg/mL | 24.2 µg/mL | – | – | – | – | – | – | – |
| 1443_C16 (PG16) (TCN-116) (antibody) | > 50 µg/mL | 1.13 µg/mL | > 50 µg/mL | > 50 µg/mL | > 50 µg/mL | 0.31 µg/mL | 6.13 µg/mL | 0.02 µg/mL | 2.55 µg/mL | 0.35 µg/mL | 28.3 µg/mL | 0.26 µg/mL | > 50 µg/mL | 5.09 µg/mL | – | – | – | – | – | – | – |
| 1495_C14 (PGC14) (antibody) | > 50 µg/mL | > 50 µg/mL | > 50 µg/mL | > 50 µg/mL | > 50 µg/mL | > 50 µg/mL | > 50 µg/mL | > 50 µg/mL | > 50 µg/mL | > 50 µg/mL | > 50 µg/mL | > 50 µg/mL | > 50 µg/mL | > 50 µg/mL | – | – | – | – | – | – | – |
| PGT-141 (4964_G22; 4993_K13) (antibody) | – | – | – | – | – | – | – | – | – | – | – | – | – | – | 0.118 µg/mL | 30.8 µg/mL | 0.001 µg/mL | 0.101 µg/mL | 0.021 µg/mL | 32.5 µg/mL | – |
| PGT-142 (4995_E20) (antibody) | – | – | – | – | – | – | – | – | – | – | – | – | – | – | 0.081 µg/mL | 23.5 µg/mL | 0.001 µg/mL | 0.08 µg/mL | 0.013 µg/mL | 12.5 µg/mL | – |
| PGT-143 (4980_N08) (antibody) | – | – | – | – | – | – | – | – | – | – | – | – | – | – | 0.156 µg/mL | 26.3 µg/mL | 0.001 µg/mL | 0.135 µg/mL | 0.036 µg/mL | 44.6 µg/mL | – |
| PGT-144 (4970_K22) (antibody) | – | – | – | – | – | – | – | – | – | – | – | – | – | – | 44.6 µg/mL | > 50 µg/mL | 0.014 µg/mL | 3.55 µg/mL | 0.105 µg/mL | > 50 µg/mL | – |
| PGT-145 (4995_P16) (antibody) | – | – | – | – | – | – | – | – | – | – | – | – | – | – | 0.003 µg/mL | 0.286 µg/mL | 0.009 µg/mL | 1.46 µg/mL | 0.361 µg/mL | 0.41 µg/mL | – |
| VRC01 (antibody) | – | – | – | – | – | – | – | – | – | – | – | – | – | – | 0.084 µg/mL | 1.08 µg/mL | 0.056 µg/mL | 1.72 µg/mL | 0.305 µg/mL | 0.435 µg/mL | IC50 (µg/mL), pseudovirus neutralization [21]: > 50 µg/mL; IC50, single-round pseudovirus neutralization [22]: 0.707 µg/mL; IC50, single-round pseudovirus neutralization [23]: 0.319 µg/mL; IC50, pseudovirus neutralization [24]: 1.75 µg/mL |
| b12 (antibody) | > 50 µg/mL | 6.11 µg/mL | > 50 µg/mL | > 50 µg/mL | 0.75 µg/mL | > 50 µg/mL | > 50 µg/mL | 5.92 µg/mL | 2.66 µg/mL | 0.13 µg/mL | > 50 µg/mL | 13.3 µg/mL | > 50 µg/mL | 5.46 µg/mL | – | – | – | – | – | – | – |
